Reference: article PMC4721548, “Conformational heterogeneity of the Roc domains in C. tepidum Roc–COR and implications for human LRRK2 Parkinson mutations” (Bioscience Reports, 2015)
Changes are numbered by the printed parent chain.

B1: C. tepidum RocCOR (AA 412-946) C600R1 + Y558A (domain or fragment, Chlorobium tepidum, UniProt Q8KC98 412-946, looked up)
chain: DNPLESPPPEIVKQGKEAVRQYFQSIEEARSKGEALVHLQEIKVHLIGDGMAGKTSLLKQLIGETFDPKESQTHGLNVVTKQAPNIKGLENDDELKECLFHFWDFGGQEIMHASHQFFMTRSSVYMLLLDSRTDSNKHYWLRHIEKAGGKSPVIVVMNKIDENPSYNIEQKKINERFPAIENRFHRISCKNGDGVESIAKSLKSAVLHPDSIYGTPLAPSWIKVKEKLVEATTAQRYLNRTEVEKICNDSGITDPGERKTLLGYLNNLGIVLYFEALDLSEIYVLDPHWVTIGVYRIINSSKTKNGHLNTSALGYILNEEQIRCDEYDPAKNNKFTYTLLEQRYLLDIMKQFELCYDEGKGLFIIPSNLPTQIDNEPEITEGEPLRFIMKYDYLPSTIIPRLMIAMQHQILDRMQWRYGMVLKSQDHEGALAKVVAETKDSTITIAIQGEPRCKREYLSIIWYEIKKINANFTNLDVKEFIPLPGHPDELVEYKELLGLEKMGRDEYVSGKLEKVFSVSKMLDSVISKEERNKER
modifications: MTSSL spin label on the native cysteine at 600 (R1 side chain)
notes: Roco protein of Chlorobium tepidum, RocCOR tandem, AA 412-946; native Cys600 used for labelling; Y558 corresponds to Arg1441 of human LRRK2
B2: C. tepidum RocCOR (AA 412-946) C600R1 + L487A (domain or fragment, Chlorobium tepidum, UniProt Q8KC98 412-946, looked up)
chain: B1 chain with L76A, A147Y
modifications: MTSSL spin label on the native cysteine at 600 (R1 side chain)
notes: Roco protein of Chlorobium tepidum, RocCOR tandem, AA 412-946; native Cys600 used for labelling; L487 corresponds to Ile1371 of human LRRK2
B3: C. tepidum RocCOR (AA 412-946) C600R1, spin-labelled at the native cysteine 600 in the Roc domain (domain or fragment, Chlorobium tepidum, UniProt Q8KC98 412-946, looked up)
chain: B1 chain with A147Y
modifications: MTSSL spin label on the native cysteine at 600 (R1 side chain)
notes: Roco protein of Chlorobium tepidum, RocCOR tandem, AA 412-946; native Cys600 used for labelling; Forms a homodimer; the row is the protomer with itself; also called C600R1^Roc

Molecular target: the molecule itself
Test: DEER (pulse EPR) inter-spin distance measurement; single-site MTSSL-labelled RocCOR, 50-100 uM protein, frozen at 50 K, X band; 150 mM NaCl, 30 mM Tris/HCl, 5 mM MgCl2, pH 7.5, 5% glycerol; apo, 1 mM GppNHp, GDP-AlFx (1 mM GDP, 1 mM AlCl3, 10 mM NaF) or 1 mM GDP; distances between the two symmetry-related labels of the dimer

Binding result, binds:
B1
B2
B3
